The text below walks through data of patent publication US20200369737A1 (published 2020).

Test in all cases: sandwich ELISA; receptor ECD/Fc chimera captured on anti-Fc plates, biotin-labeled ligand titrated, streptavidin-HRP detection
In general terms: An ELISA detects its analyte on a solid surface through an enzyme-linked reagent.

The target in assay [1] is T1, recombinant human HER4/Fc chimera (receptor extracellular domain/Fc chimera) (human, UniProt Q15303 26-651).
T1 construct: extracellular domain; Bought from R&D Systems; Captured on plates coated with anti-Fc antibody; not shown: Fc part (and any linker) of the purchased R&D Systems chimera
T1 sequence (looked up): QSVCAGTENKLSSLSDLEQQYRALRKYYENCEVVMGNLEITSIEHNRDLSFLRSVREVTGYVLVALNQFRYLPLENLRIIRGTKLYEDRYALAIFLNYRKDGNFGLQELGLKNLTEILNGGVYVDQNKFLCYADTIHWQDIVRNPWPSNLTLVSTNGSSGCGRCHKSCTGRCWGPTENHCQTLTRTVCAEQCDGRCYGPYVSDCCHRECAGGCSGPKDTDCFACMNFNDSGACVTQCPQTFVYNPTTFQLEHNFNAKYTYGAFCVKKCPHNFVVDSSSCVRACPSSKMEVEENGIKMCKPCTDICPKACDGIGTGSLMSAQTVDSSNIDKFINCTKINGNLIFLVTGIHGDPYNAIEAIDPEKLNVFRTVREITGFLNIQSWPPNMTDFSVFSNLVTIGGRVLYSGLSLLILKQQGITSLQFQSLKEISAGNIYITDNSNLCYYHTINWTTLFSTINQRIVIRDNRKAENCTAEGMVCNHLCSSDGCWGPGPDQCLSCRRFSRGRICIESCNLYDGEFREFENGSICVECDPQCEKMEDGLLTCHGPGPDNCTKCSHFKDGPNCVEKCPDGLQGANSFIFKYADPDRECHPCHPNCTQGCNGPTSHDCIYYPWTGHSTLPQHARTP

The target in assay [2] is T2, recombinant human HER3/Fc chimera (receptor extracellular domain/Fc chimera) (human, UniProt P21860 20-643).
T2 construct: extracellular domain; Bought from R&D Systems; Captured on plates coated with anti-Fc antibody; not shown: Fc part (and any linker) of the purchased R&D Systems chimera
T2 sequence (P21860 20-643, change not shown): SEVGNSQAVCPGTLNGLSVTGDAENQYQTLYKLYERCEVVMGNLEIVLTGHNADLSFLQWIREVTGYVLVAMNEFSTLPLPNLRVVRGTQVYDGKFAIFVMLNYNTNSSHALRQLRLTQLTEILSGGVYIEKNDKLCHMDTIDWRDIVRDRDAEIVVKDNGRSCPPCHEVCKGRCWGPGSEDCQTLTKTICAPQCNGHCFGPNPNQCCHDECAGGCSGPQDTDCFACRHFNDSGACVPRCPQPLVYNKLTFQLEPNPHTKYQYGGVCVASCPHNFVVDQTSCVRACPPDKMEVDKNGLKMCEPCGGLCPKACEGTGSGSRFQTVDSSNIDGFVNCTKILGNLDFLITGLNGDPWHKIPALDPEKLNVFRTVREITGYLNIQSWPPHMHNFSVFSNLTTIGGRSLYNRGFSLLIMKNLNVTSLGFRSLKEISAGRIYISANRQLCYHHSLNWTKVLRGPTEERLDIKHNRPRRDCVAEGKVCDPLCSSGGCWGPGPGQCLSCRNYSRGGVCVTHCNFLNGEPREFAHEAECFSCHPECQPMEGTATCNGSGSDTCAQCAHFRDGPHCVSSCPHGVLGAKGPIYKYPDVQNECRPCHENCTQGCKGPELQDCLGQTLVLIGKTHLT

For assay [3], the target named is T3, recombinant human EGFR/Fc chimera (receptor extracellular domain/Fc chimera) (human, UniProt P00533 25-645).
T3 construct: extracellular domain; Bought from R&D Systems; Captured on plates coated with anti-Fc antibody; also called HER/Fc chimera-EGFR; HER1; not shown: Fc part (and any linker) of the purchased R&D Systems chimera

B1: Pan-HER DNL B5-3M2 tagged with biotin (ligand)
chain: NSDSECPLSHDGYCLNDGVCMYTEAKDEYACNCVVGYIGERCQYYDLL
modifications: not fully specified; biotin label; paragraph 113 says derivatized at the N-terminus; paragraph 97 says B5-3M2 has two sites for biotinylation, the N terminus and K26
notes: Made in E. coli; also called tagged (biotinylated) DNL; EGF1-48 H16N, I23T, L26K, K28E, R45Y, K48L
In general, Kd refers to the free concentration of one partner at which half of the binding sites on the other are occupied at equilibrium, for simple one-to-one binding. Turning to B1, the Kd in assay [1] came to 4 nM; in assay [2] it was 6 nM; in assay [3] it was 5 nM.
